From EP4591887A1, “GPC3 ANTIBODY-DRUG CONJUGATE AND USE THEREOF” (priority 2022, dated 2024)
Where a chain is given by its changes, count along the chain named.

B1: Hu 52H5D3B8-8 (antibody, human IgG1, kappa, V domains shown)
VH: EVQLVQSGAEVKKPGASVKVSCKASGYTFTDYEMHWVRQAPGQGLEWMGAIHPGSGGTAYNQKFKGRVTMTADKSISTAYMELSRLRSDDTAVYYCTRFYSYAYWGQGTLVTVSS
VL: DVVMTQTPLSLSVTPGQPASISCRSSQSLVHSNGNTYLQWYLQKPGQSPQLLIYKVSNRFSGVPDRFSGSGSGTDFTLKISRVEAEDVGVYFCSQSIHVPYTFGGGTKVEIKR
notes: also called humanized GPC3 antibody Hu 52H5D3B8-8
B2: Y035 antibody (CARSGEN Therapeutics), humanized (antibody, V domains shown)
VH: B1 VH with F29H, T30S, G57D, K63R, M70I, I76T, R85S, D89E, T97A, S115A
VL: B1 VL with V2I, S12P, Q17E, F92Y, H98Y, G105Q, V109L
B3: Hu 52H5D3B8-7/8 CDRs with Y035 FRs (antibody, V domains shown)
VH: B1 VH with F29H, T30S, M70I, I76T, R85S, D89E, T97A, S115A
VL: B1 VL with V2I, S12P, Q17E, F92Y, G105Q, V109L
B4: Y035 CDRs with Hu 52H5D3B8-7 FRs (antibody, V domains shown)
VH: B1 VH with G57D, K63R
VL: DVVMTQTPLSLSVTPGQPASISCRSSQSLVHSNGNTYLQWYLQKPGQSPQLLIYKVSNRFSGVPDRFSGSGSGTDFTLKISRVEAEDVGVYYCSQSIYVPYTFGGGTKVEIK
notes: built here from the pieces; detected with anti-human IgG
B5: Hu 52H5D3B8-7 (antibody, human IgG1, kappa, V domains shown)
VH: B1 VH
VL: B1 VL with F92Y
notes: also called humanized GPC3 antibody Hu 52H5D3B8-7
B6: GC33 antibody (Chugai Pharmaceutical) (antibody, V domains shown)
VH: QVQLVQSGAEVKKPGASVKVSCKASGYTFTDYEMHWVRQAPGQGLEWMGALDPKTGDTAYSQKFKGRVTLTADKSTSTAYMELSSLTSEDTAVYYCTRFYSYTYWGQGTLVTVSS
VL: B4 VL with T7S, S12P, Q17E, Q39H, S96N, I97T, Y98H, Y101P, G105Q, V109L
notes: Control antibody, prepared as in US 7919086 B2; Whole antibody; Detected with anti-human IgG
B7: Hu 52H5D3B8-8-ZLA (antibody, human IgG1, kappa, V domains shown)
VH: B1 VH
VL: B1 VL
modifications: ZLA linker-payload on cysteine thiols freed by TCEP reduction of disulfide bonds; positions not given
notes: Constant regions as for Hu 52H5D3B8-8; also called Hu 52H5D3B8-8 ADC; Anti-GPC3-ZLA
B8: Hu 52H5D3B8-8-L4-D4 (antibody, human IgG1, kappa, V domains shown)
VH: B1 VH
VL: B1 VL
modifications: MC-MMAF (L4-D4) on cysteine thiols freed by TCEP reduction of disulfide bonds; positions not given
notes: Constant regions as for Hu 52H5D3B8-8; also called Hu 52H5D3B8-8 ADC; Anti-GPC3-L4-D4
B9: GC33-L4-D4 (antibody, V domains shown)
VH: B6 VH
VL: B4 VL with T7S, S12P, Q17E, Q39H, S96N, I97T, Y98H, Y101P, G105Q, V109L
modifications: MC-MMAF (L4-D4) on cysteine thiols of the antibody freed by TCEP reduction of disulfide bonds; positions not given
notes: Whole antibody; also called GC33 ADC; Anti-GPC3-L4-D4
B10: GC33-ZLA (antibody, V domains shown)
VH: B6 VH
VL: B4 VL with T7S, S12P, Q17E, Q39H, S96N, I97T, Y98H, Y101P, G105Q, V109L
modifications: ZLA linker-payload on cysteine thiols of the antibody freed by TCEP reduction of disulfide bonds; positions not given
notes: Whole antibody; also called GC33 ADC; Anti-GPC3-ZLA
B11: Hu 52H5D3B8-8-L1-D1 (antibody, human IgG1, kappa, V domains shown)
VH: B1 VH
VL: B1 VL
modifications: MC-vc-PAB-MMAE (L1-D1) on cysteine thiols freed by TCEP reduction of disulfide bonds; positions not given
B12: Hu 52H5D3B8-7-L1-D1 (antibody, human IgG1, kappa, V domains shown)
VH: B1 VH
VL: B1 VL with F92Y
modifications: MC-vc-PAB-MMAE (L1-D1) on cysteine thiols freed by TCEP reduction of disulfide bonds; positions not given
B13: Hu 52H5D3B8-8-L3-D3 (antibody, human IgG1, kappa, V domains shown)
VH: B1 VH
VL: B1 VL
modifications: MA-PEG4-VC-PAB-DMEA-Duocarmycin SA (L3-D3) on cysteine thiols freed by TCEP reduction of disulfide bonds; positions not given
B14: GC33-L1-D1 (antibody, V domains shown)
VH: B6 VH
VL: B4 VL with T7S, S12P, Q17E, Q39H, S96N, I97T, Y98H, Y101P, G105Q, V109L
modifications: MC-vc-PAB-MMAE (L1-D1) on cysteine thiols of the antibody freed by TCEP reduction of disulfide bonds; positions not given
B15: GC33-L3-D3 (antibody, V domains shown)
VH: B6 VH
VL: B4 VL with T7S, S12P, Q17E, Q39H, S96N, I97T, Y98H, Y101P, G105Q, V109L
modifications: MA-PEG4-VC-PAB-DMEA-Duocarmycin SA (L3-D3) on cysteine thiols of the antibody freed by TCEP reduction of disulfide bonds; positions not given
B16: Hu 52H5D3B8-7-L4-D4 (antibody, human IgG1, kappa, V domains shown)
VH: B1 VH
VL: B1 VL with F92Y
modifications: MC-MMAF (L4-D4) on cysteine thiols freed by TCEP reduction of disulfide bonds; positions not given

The molecules below were run against T1, human GPC3 (Glypican-3) (human, UniProt P51654 25-580) (assay: FACS on HepG2 cells). Details: not given.
T1 construct: whole, on cells; the cell line is named under assay or readout
Work on B1 yielded an EC50 of 0.351 nM.
Work on B2 yielded an EC50 of 1.25 nM.
B3 was tested, and the EC50 was 0.769 nM.
B4 was tested, and the EC50 was 0.611 nM.
Molecule B5 has an EC50 of 0.405 nM.
Molecule B6 has an EC50 of 0.745 nM.

Each molecule was assayed against T1, human GPC3 (Glypican-3) (assay: FACS on Huh-7 cells). Details: not given.
B1 was tested, and the EC50 was 0.418 nM.
B2 showed an EC50 of 1.18 nM.
With B3 the EC50 was 0.782 nM.
In the case of B4, the EC50 is reported as 0.667 nM.
In the case of B5, the EC50 is reported as 0.464 nM.
Molecule B6 has an EC50 of 0.953 nM.

Molecular target: T1, human GPC3 (Glypican-3)
Test: FACS on HepG2 cells
Details: not given
Remark: another data set of the same source
B1 was tested, and the EC50 was 0.0743 µg/mL.
For B7, the EC50 was 0.0569 µg/mL.
Molecule B8 has an EC50 of 0.0693 µg/mL.
B6 gave an EC50 of 0.269 µg/mL.
With B9 the EC50 was 0.112 µg/mL.
Work on B10 yielded an EC50 of 0.143 µg/mL.

The molecules below were run against T1, human GPC3 (Glypican-3) (assay: cell-based or functional assay). Details: not given.
With B1 the “internalization on HepG2 cells (pHAb dye-labelled anti-hIgG secondary antibody, 48 h): EC50” value (“internalization on HepG2 cells … EC50” for short) was 0.78 µg/mL and the “internalization on HepG2 cells (pHAb dye-labelled anti-hIgG secondary antibody, 48 h): Top” value (“internalization on HepG2 cells … Top” below) was 62400.
For B2, the “internalization on HepG2 cells … EC50” value was 1.08 µg/mL and the “internalization on HepG2 cells … Top” value was 52000.
In the case of B3, the “internalization on HepG2 cells … EC50” value is reported as 1.14 µg/mL and the “internalization on HepG2 cells … Top” value is reported as 59200.
With B4 the “internalization on HepG2 cells … EC50” value was 1.11 µg/mL and the “internalization on HepG2 cells … Top” value was 52200.
In the case of B5, the “internalization on HepG2 cells … EC50” value is reported as 0.72 µg/mL and the “internalization on HepG2 cells … Top” value is reported as 58600.

Molecular target: T1, human GPC3 (Glypican-3)
Test: cell-based or functional assay
Details: not given
Remark: another data set of the same source
For B1, the “Percentage reduction of GPC3 on cell surface (%), Huh7 cells, 2 h at 37°C against ice, FACS” value was 65.3%.
In the case of B7, the “Percentage reduction of GPC3 on cell surface (%), Huh7 cells, 2 h at 37°C against ice, FACS” value is reported as 64.3%.
For B8, the “Percentage reduction of GPC3 on cell surface (%), Huh7 cells, 2 h at 37°C against ice, FACS” value was 63.4%.
B11 was tested, and the “Percentage reduction of GPC3 on cell surface (%), Huh7 cells, 2 h at 37°C against ice, FACS” value was 66.5%.
With B12 the “Percentage reduction of GPC3 on cell surface (%), Huh7 cells, 2 h at 37°C against ice, FACS” value was 70.8%.
With B13 the “Percentage reduction of GPC3 on cell surface (%), Huh7 cells, 2 h at 37°C against ice, FACS” value was 65%.
In the case of B5, the “Percentage reduction of GPC3 on cell surface (%), Huh7 cells, 2 h at 37°C against ice, FACS” value is reported as 64.4%.
With B6 the “Percentage reduction of GPC3 on cell surface (%), Huh7 cells, 2 h at 37°C against ice, FACS” value was 60%.
In the case of B9, the “Percentage reduction of GPC3 on cell surface (%), Huh7 cells, 2 h at 37°C against ice, FACS” value is reported as 61.3%.
For B10, the “Percentage reduction of GPC3 on cell surface (%), Huh7 cells, 2 h at 37°C against ice, FACS” value was 59%.
With B14 the “Percentage reduction of GPC3 on cell surface (%), Huh7 cells, 2 h at 37°C against ice, FACS” value was 63.1%.
In the case of B15, the “Percentage reduction of GPC3 on cell surface (%), Huh7 cells, 2 h at 37°C against ice, FACS” value is reported as 59.9%.

Molecular target: T1, human GPC3 (Glypican-3)
Test: cell-based or functional assay
Details: not given
Remark: another data set of the same source
In the case of B7, the “EC50 value of cytotoxicity, HepG2 cells (96 h, PrestoBlue)” value (from here on “EC50 value of cytotoxicity, HepG2 cells”) is reported as 0.0391 µg/mL and the “EC50 value of cytotoxicity, Huh7 cells (96 h, PrestoBlue)” value (from here on “EC50 value of cytotoxicity, Huh7 cells”) is reported as 0.00352 µg/mL.
B16 was tested, and the “EC50 value of cytotoxicity, Huh7 cells” value was 0.00455 µg/mL.
In the case of B11, the “EC50 value of cytotoxicity, HepG2 cells” value is reported as 0.0409 µg/mL and the “EC50 value of cytotoxicity, Huh7 cells” value is reported as 0.038 µg/mL.
B13 was tested, and the “EC50 value of cytotoxicity, Huh7 cells” value was 0.0274 µg/mL.
In the case of B9, the “EC50 value of cytotoxicity, Huh7 cells” value is reported as 0.00882 µg/mL.
With B10 the “EC50 value of cytotoxicity, HepG2 cells” value was 0.0892 µg/mL and the “EC50 value of cytotoxicity, Huh7 cells” value was 0.0148 µg/mL.
For B14, the “EC50 value of cytotoxicity, HepG2 cells” value was 0.0732 µg/mL and the “EC50 value of cytotoxicity, Huh7 cells” value was 0.0786 µg/mL.
For B15, the “EC50 value of cytotoxicity, Huh7 cells” value was 0.0694 µg/mL.

These molecules were tested on PDX model LIV#219 of nude mice with human liver cancer (assay: Antitumor activity in LIV#219 liver cancer PDX model). Details: 3 mg/kg, Day 26.
Type: in vivo, BALB/c nude mice
Method: The antitumor activity of GPC3-ADCs was tested in an LIV#219 liver cancer PDX model. The model has a higher expression level of GPC3 RNA, and a positive expression of GPC3 as confirmed by FACS analysis.
The process of the establishment of a PDX model of nude mice with human liver cancer was as follows: A tumor tissue with a volume size of about 15-30 mm^3 was transplanted subcutaneously under the back of the BALB/c nude mice. When the tumor volume reached 250-360 mm^3, the mice were divided into a total of 4 groups by a randomized block method, with 6 mice per group, ensuring uniformity in tumor volume and balance in body weight between these groups. The groups included a vehicle group, a 3 mg/kg GC33-L1-D1 administration group, a 3 mg/kg Hu 52H5D3B8-7-L1-D1 administration group, and a 3 mg/kg Hu 52H5D3B8-8-L1-D1 administration group.
Data analysis: During the experiment, the tumor volume was measured twice a week. The calculation formula for the tumor volume (TV) is: TV = l × w^2 / 2, in which l and w represent the measured length and width of the tumor, respectively. According to the measurement results, the relative tumor volume (RTV) was calculated by RTV = Vf / V0, in which V0 is the tumor volume measured at the time of grouping for administration (i.e., Day 0), and Vf is the tumor volume measured on the last day. […]
With B14 the “relative tumor proliferation rate (T/C) (%)” value was 54.90% and the “tumor growth inhibition rate (TGI %)” value was 45.10%.

These molecules were tested against T1, human GPC3 (Glypican-3) (assay: FACS on HepG2 cells, top of the fitted fluorescence curve). Details: not given.
B1 gave a Top of 75000.
Molecule B7 has a Top of 69100.
With B8 the Top was 72900.
With B6 the Top was 64100.
Molecule B9 has a Top of 60200.
Molecule B10 has a Top of 68000.

Each molecule was assayed against T1, human GPC3 (Glypican-3) (assay: FACS on CHO-K1 cells overexpressing human GPC3 (GPC3-CHO-K1)). Details: not given.
B1 was tested, and the EC50 was 0.411 nM.
Work on B2 yielded an EC50 of 1.46 nM.
B3 showed an EC50 of 0.763 nM.
B4 showed an EC50 of 0.907 nM.
Molecule B5 has an EC50 of 0.446 nM.
B6 showed an EC50 of 0.956 nM.
